Measurements as given in IntAct's records for PubMed 28424519.

B1: Transcription regulatory protein SNF2 (Saccharomyces cerevisiae), P22082 (parent)
chain: MNIPQRQFSNEEVNRCYLRWQHLRNEHGMNAPSVPEFIYLTKVLQFAAKQRQELQMQRQQQGISGSQQNIVPNSSDQAELPNNASSHISASASPHLAPNMQLNGNETFSTSAHQSPIMQTQMPLNSNGGNNMLPQRQSSVGSLNATNFSPTPANNGENAAEKPDNSNHNNLNLNNSELQPQNRSLQEHNIQDSNVMPGSQINSPMPQQAQMQQAQFQAQQAQQAQQAQQAQQAQARLQQGRRLPMTMFTAEQSELLKAQITSLKCLVNRKPIPFEFQAVIQKSINHPPDFKRMLLSLSEFARRRQPTDQNNQSNLNGGNNTQQPGTNSHYNNTNTDNVSGLTRNAPLDSKDENFASVSPAGPSSVHNAKNGTLDKNSQTVSGTPITQTESKKEENETISNVAKTAPNSNKTHTEQNNPPKPQKPVPLNVLQDQYKEGIKVVDIDDPDMMVDSFTMPNISHSNIDYQTLLANSDHAKFTIEPGVLPVGIDTHTATDIYQTLIALNLDTTVNDCLDKLLNDECTESTRENALYDYYALQLLPLQKAVRGHVLQFEWHQNSLLTNTHPNFLSKIRNINVQDALLTNQLYKNHELLKLERKKTEAVARLKSMNKSAINQYNRRQDKKNKRLKFGHRLIATHTNLERDEQKRAEKKAKERLQALKANDEEAYIKLLDQTKDTRITHLLRQTNAFLDSLTRAVKDQQKYTKEMIDSHIKEASEEVDDLSMVPKMKDEEYDDDDDNSNVDYYNVAHRIKEDIKKQPSILVGGTLKDYQIKGLQWMVSLFNNHLNGILADEMGLGKTIQTISLLTYLYEMKNIRGPYLVIVPLSTLSNWSSEFAKWAPTLRTISFKGSPNERKAKQAKIRAGEFDVVLTTFEYIIKERALLSKVKWVHMIIDEGHRMKNAQSKLSLTLNTHYHADYRLILTGTPLQNNLPELWALLNFVLPKIFNSVKSFDEWFNTPFANTGGQDKIELSEEETLLVIRRLHKVLRPFLLRRLKKDVEKELPDKVEKVVKCKMSALQQIMYQQMLKYRRLFIGDQNNKKMVGLRGFNNQIMQLKKICNHPFVFEEVEDQINPTRETNDDIWRVAGKFELLDRILPKLKATGHRVLIFFQMTQIMDIMEDFLRYINIKYLRLDGHTKSDERSELLRLFNAPDSEYLCFILSTRAGGLGLNLQTADTVIIFDTDWNPHQDLQAQDRAHRIGQKNEVRILRLITTNSVEEVILERAYKKLDIDGKVIQAGKFDNKSTSEEQEALLRSLLDAEEERRKKRESGVEEEEELKDSEINEILARNDEEMAVLTRMDEDRSKKEEELGVKSRLLEKSELPDIYSRDIGAELKREESESAAVYNGRGARERKTATYNDNMSEEQWLRQFEVSDDEKNDKQARKQRTKKEDKSEAIDGNGEIKGENIDADNDGPRINNISAEDRADTDLAMNDDDFLSKKRKAGRPRGRPKKVKLEGSENSEPPALESSPVTGDNSPSEDFMDIPKPRTAGKTSVKSARTSTRGRGRGRGRGRGRGRGRGRPPKARNGLDYVRTPAAATSPIDIREKVAKQALDLYHFALNYENEAGRKLSDIFLSKPSKALYPDYYMIIKYPVAFDNINTHIETLAYNSLKETLQDFHLIFSNARIYNTEGSVVYEDSLELEKVVTKKYCEIMGDNSQLDFTEFDEQYGTRPLVLPPVVTSSVAESFTDEADSSMTEASV

Variants of: B1
Details: with h4_yeast HHF1, P02309

effect of a mutation on the interaction | Variant
disrupting interaction | E1069K;D1121K
